Laboratory results published in PMC8607333, “Real-time kinetic studies of Mycobacterium tuberculosis LexA–DNA interaction” (Bioscience Reports, 2021).

B1: Mtb LexAΔ24aa (domain or fragment)
chain: SALTERQRTILDVIRASVTSRGYPPSIREIGDAVGLTSTSSVAHQLRTLERKGYLRRDPNRPRAVNVRGADDAALPPVTEVAGSDALPEPTFVPVLGRIAAGGPILAEEAVEDVFPLPRELVGEGTLFLLKVIGDSMVEAAICDGDWVVVRQQNVADNGDIVAAMIDGEATVKTFKRAGGQVWLMPHNPAFDPIPGNDATVLGKVVTVIRKV
notes: also called ∆24aa variant; LexA∆24aa
B2: Mycobacterium tuberculosis LexA, wild type (natural protein)
chain: MNDSNDTSVAGGAAGADSRVLSADSALTERQRTILDVIRASVTSRGYPPSIREIGDAVGLTSTSSVAHQLRTLERKGYLRRDPNRPRAVNVRGADDAALPPVTEVAGSDALPEPTFVPVLGRIAAGGPILAEEAVEDVFPLPRELVGEGTLFLLKVIGDSMVEAAICDGDWVVVRQQNVADNGDIVAAMIDGEATVKTFKRAGGQVWLMPHNPAFDPIPGNDATVLGKVVTVIRKV
notes: also called Mtb LexA; WT Mtb LexA
B3: Mtb LexA RKG/AAA (natural protein)
chain: MNDSNDTSVAGGAAGADSRVLSADSALTERQRTILDVIRASVTSRGYPPSIREIGDAVGLTSTSSVAHQLRTLEAAAYLRRDPNRPRAVNVRGADDAALPPVTEVAGSDALPEPTFVPVLGRIAAGGPILAEEAVEDVFPLPRELVGEGTLFLLKVIGDSMVEAAICDGDWVVVRQQNVADNGDIVAAMIDGEATVKTFKRAGGQVWLMPHNPAFDPIPGNDATVLGKVVTVIRKV
notes: also called RKG/AAA mutant; RKG mutant
B4: dnaE2_44mer SOS box, biotinylated (dsDNA)
DNA 1: ACAACTGCGCTGTATCGAACAATTGTTCGATATACTGTGGAATG
DNA 2: CATTCCACAGTATATCGAACAATTGTTCGATACAGCGCAGTTGT
B5: dnaE2 44mer SOS box, 32P end-labeled (dsDNA)
DNA 1: ACAACTGCGCTGTATCGAACAATTGTTCGATATACTGTGGAATG
DNA 2: CATTCCACAGTATATCGAACAATTGTTCGATACAGCGCAGTTGT
B6: dnaE2 44mer SOS box, non-biotinylated (dsDNA)
DNA 1: ACAACTGCGCTGTATCGAACAATTGTTCGATATACTGTGGAATG
DNA 2: CATTCCACAGTATATCGAACAATTGTTCGATACAGCGCAGTTGT
B7: Mtb LexAΔ18aa (natural protein)
chain: MNDSNDTSVAGGAAGADSRVLSADSALTERQRTILDVIRASVTSRGYPPSIREIGDAVGLTSTSSVAHQLRTLERKGYLRRDPNRPRAVNVRGPEPTFVPVLGRIAAGGPILAEEAVEDVFPLPRELVGEGTLFLLKVIGDSMVEAAICDGDWVVVRQQNVADNGDIVAAMIDGEATVKTFKRAGGQVWLMPHNPAFDPIPGNDATVLGKVVTVIRKV
notes: also called ∆18aa variant; LexA18aaΔ

Columns and labels:
SEC = molecular target: the molecule itself; assay: SEC
LexA RKG/AAA [1] = molecular target: T1, LexA RKG/AAA (Mycobacterium tuberculosis, UniProt P9WHR7 1-236, R75A;K76A;G77A); assay: BLI; pH 7.5; association up to 600 s; BLI: 10 mM HEPES pH 7.5, 50 mM NaCl, 25 C (pH 4 buffer not stated), 1:1 global fit; […]; settings: protein: recombinant; tags: 6xHis; chain copies: 2; label: 5' biotin on strand 1; blunt
T1 sequence: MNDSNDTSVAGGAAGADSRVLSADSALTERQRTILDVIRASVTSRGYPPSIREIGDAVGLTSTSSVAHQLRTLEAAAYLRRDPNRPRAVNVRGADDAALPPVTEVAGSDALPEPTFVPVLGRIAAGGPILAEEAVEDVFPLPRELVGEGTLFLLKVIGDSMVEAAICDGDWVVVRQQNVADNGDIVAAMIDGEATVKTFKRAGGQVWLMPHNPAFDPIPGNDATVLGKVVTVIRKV

LexA RKG/AAA [2] = molecular target: T1, LexA RKG/AAA; assay: EMSA; 128 nM protein; BLI: 10 mM HEPES pH 7.5, 50 mM NaCl, 25 C (pH 4 buffer not stated), 1:1 global fit; […]; settings: protein: recombinant; tags: 6xHis; chain copies: 2; label: 32P end label, no biotin; blunt
LexA RKG/AAA [3] = molecular target: T1, LexA RKG/AAA; assay: ANS extrinsic fluorescence quench; ANS, 1:2 ratio; no significant quench; BLI: 10 mM HEPES pH 7.5, 50 mM NaCl, 25 C (pH 4 buffer not stated), 1:1 global fit; […]; settings: protein: recombinant; tags: 6xHis; chain copies: 2; blunt

| Binder | stoichiometry N (SEC) | other results |
| --- | --- | --- |
| B1 | 2 |  |
| B2 | 2 |  |
| B3 | 2 |  |
| B4 |  | binding result (LexA RKG/AAA [1]): no binding |
| B5 |  | binding result (LexA RKG/AAA [2]): no binding |
| B6 |  | binding result (LexA RKG/AAA [3]): no binding |
| B7 | 2 |  |
